Laboratory results taken from article PMC6874815, “Tunnel engineering to accelerate product release for better biomass-degrading abilities in lignocellulolytic enzymes” (Biotechnology for Biofuels, 2019).
Numbering of substitutions follows the chain as printed. In names and notes the source's numbering stands.

B1: S7-xyl (Xyn10A in Table 1) (Halalkalibacterium halodurans C-125) (protein)
chain: AQGGPPKSGVFGENEKRNDQPFAWQVASLSERYQEQFDIGAAVEPYQLEGRQAQILKHHYNSLVAENAMKPESLQPREGEWNWEGADKIVEFARKHNMELRFHTLVWHSQVPEWFFIDEDGNRMVDETDPDKREANKQLLLERMENHIKTVVERYKDDVTSWDVVNEVIDDGGGLRESEWYQITGTDYIKVAFETARKYGGEEAKLYINDYNTEVPSKRDDLYNLVKDLLEQGVPIDGVGHQSHIQIGWPSIEDTRASFEKFTSLGLDNQVTELDMSLYGWPPTGAYTSYDDIPAELLQAQADRYDQLFELYEELAADISSVTFWGIADNHTWLDGRAREYNNGVGIDAPFVFDHNYRVKPAYWRIID
notes: N-terminal His-tag, pET-28a, E. coli Rosetta (DE3), codon-optimized synthetic gene; GH10
B2: S7-xyl (Xyn10A in Table 1) (Halalkalibacterium halodurans C-125; Q274S/V243N/W277R) (protein)
chain: B1 chain with V215N, Q246S, W249R
notes: as for B1

Substrate: O=[N+]([O-])c1ccc(O[C@@H]2OC[C@@H](O[C@@H]3OC[C@@H](O)[C@H](O)[C@H]3O)[C@H](O)[C@H]2O)cc1
Test: Eadie-Hofstee plot of hydrolysis
Type: biochemical, Halalkalibacterium halodurans
Conditions: pH and temperature of kinetic assay not stated (activity assay: glycine-NaOH pH 9.0, 70 °C)
Source text: Eadie-Hofstee plot of hydrolysis on S7-xyl (Xyn10A in Table 1)

[1] = mutant 254RL1, text b16 says Km slightly increased by 10%, table shows a decrease

Protein	Km (listed as labelled Xyn10A)	kcat (listed as labelled Xyn10A)	kcat/Km (listed as labelled Xyn10A)	Km [1]	kcat [1]	kcat/Km [1]
B1	4.42 ± 0.12 mM	4.57 ± 0.31 s⁻¹	1030 M⁻¹ s⁻¹	–	–	–
B2	–	–	–	4.04 ± 0.27 mM	14.4 ± 0.21 s⁻¹	3540 M⁻¹ s⁻¹
